The values that follow come from paper PMC12016525, “The GCN4-Swi6B module mediates low nitrogen-induced cell wall remodeling in Ganoderma lucidum”.

The target in data set [1] is T1, GCN4 (Ganoderma lucidum, UniProt A0A6H0YJ80 1-300). Briefly: SPR. As to conditions: SPR: 10 mM HEPES pH 7.4, 150 mM NaCl, 3 mM EDTA, 0.005% P20, 25 C, SA chip, GCN4 7.81-125 nM; EMSA: Thermo 89880 kit, conditions not stated; in M (unit assumed).
Data set [2] addresses T1, GCN4. Briefly: EMSA; SPR: 10 mM HEPES pH 7.4, 150 mM NaCl, 3 mM EDTA, 0.005% P20, 25 C, SA chip, GCN4 7.81-125 nM; EMSA: Thermo 89880 kit, conditions not stated. The note with it: protein: recombinant; tags: His; chain copies: 2; blunt.

T1 sequence (A0A6H0YJ80 entry or part of it): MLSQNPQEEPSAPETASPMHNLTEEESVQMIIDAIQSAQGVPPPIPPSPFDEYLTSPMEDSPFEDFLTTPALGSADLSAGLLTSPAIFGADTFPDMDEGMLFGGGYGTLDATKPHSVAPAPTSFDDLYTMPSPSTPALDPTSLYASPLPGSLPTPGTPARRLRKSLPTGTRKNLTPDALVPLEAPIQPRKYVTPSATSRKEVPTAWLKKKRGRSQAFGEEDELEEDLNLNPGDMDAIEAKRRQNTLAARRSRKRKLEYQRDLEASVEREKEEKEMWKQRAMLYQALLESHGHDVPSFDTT

Take SWI6 (GBE) SPR probe: the Kd (M (unit not given)) in the data set with GCN4 [1] stood at 8.79e-08.

B1: m-SWI6 mutant probe (pSwi6-M-Biotin) (dsDNA)
DNA 1: GAAAGTACCAGGGATAAATTTATTATATAGTCTCGGTGCCATG
DNA 2: CATGGCACCGAGACTATATAATAAATTTATCCCTGGTACTTTC
For the molecule B1, the binding result with GCN4 [2] was “no binding”.

B2: SWI6 promoter GBE probe (pSwi6-Biotin) (dsDNA)
DNA 1: GAAAGTACCAGGGCACCTGGTGAGTCTCAGTCTCGGTGCCATG
DNA 2: CATGGCACCGAGACTGAGACTCACCAGGTGCCCTGGTACTTTC
As for B2, the binding result with GCN4 [2] was “binds”.
